Earlier results on 1 substance are cited in paper PMC10793677.

One may read the Kd as the constant that tells how readily two partners part at equilibrium.

For one data set, the target named is CD73 (Mus musculus) (UniProt Q61503). Kind of data set: flow cytometry and SPR. For orientation: Flow cytometry measures light scatter and fluorescence of single cells or particles in a stream.
Another data set has as its target CD73 (Homo sapiens) (UniProt P21589). Description: flow cytometry and SPR.
UniProt P21589, sequence (P21589 27-549): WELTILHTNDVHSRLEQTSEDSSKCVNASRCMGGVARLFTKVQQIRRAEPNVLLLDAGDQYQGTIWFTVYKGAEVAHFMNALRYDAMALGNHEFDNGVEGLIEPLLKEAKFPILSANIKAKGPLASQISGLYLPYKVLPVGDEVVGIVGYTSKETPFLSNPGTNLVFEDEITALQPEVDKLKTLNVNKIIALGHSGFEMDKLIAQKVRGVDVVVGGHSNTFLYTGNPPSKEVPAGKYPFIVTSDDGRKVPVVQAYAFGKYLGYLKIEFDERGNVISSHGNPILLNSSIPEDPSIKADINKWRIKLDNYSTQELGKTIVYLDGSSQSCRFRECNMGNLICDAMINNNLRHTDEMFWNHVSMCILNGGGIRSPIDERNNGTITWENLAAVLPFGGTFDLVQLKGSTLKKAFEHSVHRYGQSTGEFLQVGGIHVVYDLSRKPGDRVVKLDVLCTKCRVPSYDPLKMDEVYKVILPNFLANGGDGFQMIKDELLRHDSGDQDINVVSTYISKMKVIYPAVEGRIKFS

UniProt Q61503, sequence (Q61503 29-551): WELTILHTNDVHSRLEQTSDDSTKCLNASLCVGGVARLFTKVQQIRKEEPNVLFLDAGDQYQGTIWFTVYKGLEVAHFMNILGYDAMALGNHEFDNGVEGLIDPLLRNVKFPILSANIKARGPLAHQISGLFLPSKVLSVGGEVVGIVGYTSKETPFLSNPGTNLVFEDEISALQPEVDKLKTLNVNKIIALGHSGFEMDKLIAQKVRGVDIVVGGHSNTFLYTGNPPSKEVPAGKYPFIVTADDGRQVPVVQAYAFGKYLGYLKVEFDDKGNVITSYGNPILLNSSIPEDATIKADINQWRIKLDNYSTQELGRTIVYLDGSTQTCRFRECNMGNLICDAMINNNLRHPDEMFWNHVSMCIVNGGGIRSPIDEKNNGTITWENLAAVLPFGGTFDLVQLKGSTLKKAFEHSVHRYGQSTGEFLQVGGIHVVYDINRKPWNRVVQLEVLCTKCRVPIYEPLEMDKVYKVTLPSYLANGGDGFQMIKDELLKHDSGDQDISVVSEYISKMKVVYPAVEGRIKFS

On to Oleclumab, for which the Kd with CD73 (Mus musculus) was 0.113 nM; in the data set with CD73 (Homo sapiens), 0.154 nM.
